From patent US12679878B2, “CRF2 receptor agonists and their use in therapy” (SANOFI, priority 2020, dated 2026)
Starred links: 1 amine or outer side, 2 acyl side, 3 side chain; linkers in the order of their positions; H or OH if unused. Groups on a side chain read outwards from the residue. No end group written: not given here. *: point of attachment. C18 diacid = O=C(O)CCCCCCCCCCCCCCCCC(=O)*; γGlu = O=C(O)[C@H](CCC(=O)[*:2])N[*:1]; Palmitoyl = CCCCCCCCCCCCCCCC(=O)*; AEEA = NCCOCCOCC(=O)O

T1: anti-target CRF1R receptor (UniProt P34998 24-415, limits assumed)
T1 sequence (looked up): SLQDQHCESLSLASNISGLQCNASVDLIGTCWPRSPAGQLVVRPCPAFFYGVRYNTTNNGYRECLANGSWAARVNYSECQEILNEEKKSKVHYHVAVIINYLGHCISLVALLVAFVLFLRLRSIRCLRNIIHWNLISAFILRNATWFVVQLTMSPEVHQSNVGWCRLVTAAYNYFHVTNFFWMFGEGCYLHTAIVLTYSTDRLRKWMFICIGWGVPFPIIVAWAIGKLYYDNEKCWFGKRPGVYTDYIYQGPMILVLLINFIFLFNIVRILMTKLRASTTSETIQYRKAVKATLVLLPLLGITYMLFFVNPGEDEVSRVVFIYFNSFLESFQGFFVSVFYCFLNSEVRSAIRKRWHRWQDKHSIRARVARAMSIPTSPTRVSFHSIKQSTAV


Tests used:
[1] = biological target: rat CRF2R α receptor (rat, UniProt P47866 20-411); experiment: cell-based or functional assay
rat CRF2R α receptor, sequence (P47866 20-411): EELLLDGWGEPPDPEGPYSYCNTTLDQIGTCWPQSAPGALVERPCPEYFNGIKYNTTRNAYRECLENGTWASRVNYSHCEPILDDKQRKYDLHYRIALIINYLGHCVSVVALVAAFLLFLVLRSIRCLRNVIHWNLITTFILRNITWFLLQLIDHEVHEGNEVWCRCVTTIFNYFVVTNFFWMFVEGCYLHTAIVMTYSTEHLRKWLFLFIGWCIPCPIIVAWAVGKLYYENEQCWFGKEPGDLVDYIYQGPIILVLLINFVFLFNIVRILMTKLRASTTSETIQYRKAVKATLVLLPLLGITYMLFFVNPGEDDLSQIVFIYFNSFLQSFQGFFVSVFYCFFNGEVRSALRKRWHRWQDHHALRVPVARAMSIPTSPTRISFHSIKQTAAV

[2] = biological target: T1, anti-target CRF1R receptor; experiment: cell-based or functional assay

Row | EC50 [nM], 0% HSA (cAMP, A7R5 cells) [1] | EC50[nM] 0% HSA (cAMP, CRF1R-overexpression CHO cells) [2] | Emax (%) (cAMP, CRF1R-overexpression CHO cells) [2] | Binder
1 | 2.5 nM | > 1000 nM | 4.3% | FTLSLDVPTKIK([AEEA-AEEA-γGlu-C18 diacid])QILFKQQKQKKERQQAEKNKQLLEQI-NH2 (N-terminus assumed; SMILES CC[C@H](C)[C@H](NC(=O)[C@H](CCC(N)=O)NC(=O)[C@H](CCC(=O)O)NC(=O)[C@H](CC(C)C)NC(=O)[C@H](CC(C)C)NC(=O)[C@H](CCC(N)=O)NC(=O)[C@H](CCCCN)NC(=O)[C@H](CC(N)=O)NC(=O)[C@H](CCCCN)NC(=O)[C@H](CCC(=O)O)NC(=O)[C@H](C)NC(=O)[C@H](CCC(N)=O)NC(=O)[C@H](CCC(N)=O)NC(=O)[C@H](CCCNC(=N)N)NC(=O)[C@H](CCC(=O)O)NC(=O)[C@H](CCCCN)NC(=O)[C@H](CCCCN)NC(=O)[C@H](CCC(N)=O)NC(=O)[C@H](CCCCN)NC(=O)[C@H](CCC(N)=O)NC(=O)[C@H](CCC(N)=O)NC(=O)[C@H](CCCCN)NC(=O)[C@H](Cc1ccccc1)NC(=O)[C@H](CC(C)C)NC(=O)[C@@H](NC(=O)[C@H](CCC(N)=O)NC(=O)[C@H](CCCCNC(=O)COCCOCCNC(=O)COCCOCCNC(=O)CC[C@H](NC(=O)CCCCCCCCCCCCCCCCC(=O)O)C(=O)O)NC(=O)[C@@H](NC(=O)[C@H](CCCCN)NC(=O)[C@@H](NC(=O)[C@@H]1CCCN1C(=O)[C@@H](NC(=O)[C@H](CC(=O)O)NC(=O)[C@H](CC(C)C)NC(=O)[C@H](CO)NC(=O)[C@H](CC(C)C)NC(=O)[C@@H](NC(=O)[C@@H](N)Cc1ccccc1)[C@@H](C)O)C(C)C)[C@@H](C)O)[C@@H](C)CC)[C@@H](C)CC)C(N)=O) [peptide of SEQ ID NO: 13]
2 | 0.11 nM | > 1000 nM | 16% | FTLSLDVPTKIK([γGlu-Palmitoyl])QKLLKQEKQKKQRQKAKTAAQILAQV-NH2 (N-terminus assumed; SMILES CCCCCCCCCCCCCCCC(=O)N[C@@H](CCC(=O)NCCCC[C@H](NC(=O)[C@@H](NC(=O)[C@H](CCCCN)NC(=O)[C@@H](NC(=O)[C@@H]1CCCN1C(=O)[C@@H](NC(=O)[C@H](CC(=O)O)NC(=O)[C@H](CC(C)C)NC(=O)[C@H](CO)NC(=O)[C@H](CC(C)C)NC(=O)[C@@H](NC(=O)[C@@H](N)Cc1ccccc1)[C@@H](C)O)C(C)C)[C@@H](C)O)[C@@H](C)CC)C(=O)N[C@@H](CCC(N)=O)C(=O)N[C@@H](CCCCN)C(=O)N[C@@H](CC(C)C)C(=O)N[C@@H](CC(C)C)C(=O)N[C@@H](CCCCN)C(=O)N[C@@H](CCC(N)=O)C(=O)N[C@@H](CCC(=O)O)C(=O)N[C@@H](CCCCN)C(=O)N[C@@H](CCC(N)=O)C(=O)N[C@@H](CCCCN)C(=O)N[C@@H](CCCCN)C(=O)N[C@@H](CCC(N)=O)C(=O)N[C@@H](CCCNC(=N)N)C(=O)N[C@@H](CCC(N)=O)C(=O)N[C@@H](CCCCN)C(=O)N[C@@H](C)C(=O)N[C@@H](CCCCN)C(=O)N[C@H](C(=O)N[C@@H](C)C(=O)N[C@@H](C)C(=O)N[C@@H](CCC(N)=O)C(=O)N[C@H](C(=O)N[C@@H](CC(C)C)C(=O)N[C@@H](C)C(=O)N[C@@H](CCC(N)=O)C(=O)N[C@H](C(N)=O)C(C)C)[C@@H](C)CC)[C@@H](C)O)C(=O)O) [peptide of SEQ ID NO: 8]
3 | 0.01 nM | > 1000 nM | 12.7% | FTLSLDVPTKIK([γGlu-Palmitoyl])QKLLKQEKQKKQRQKAKTNAQILAQV-NH2 (N-terminus assumed; SMILES CCCCCCCCCCCCCCCC(=O)N[C@@H](CCC(=O)NCCCC[C@H](NC(=O)[C@@H](NC(=O)[C@H](CCCCN)NC(=O)[C@@H](NC(=O)[C@@H]1CCCN1C(=O)[C@@H](NC(=O)[C@H](CC(=O)O)NC(=O)[C@H](CC(C)C)NC(=O)[C@H](CO)NC(=O)[C@H](CC(C)C)NC(=O)[C@@H](NC(=O)[C@@H](N)Cc1ccccc1)[C@@H](C)O)C(C)C)[C@@H](C)O)[C@@H](C)CC)C(=O)N[C@@H](CCC(N)=O)C(=O)N[C@@H](CCCCN)C(=O)N[C@@H](CC(C)C)C(=O)N[C@@H](CC(C)C)C(=O)N[C@@H](CCCCN)C(=O)N[C@@H](CCC(N)=O)C(=O)N[C@@H](CCC(=O)O)C(=O)N[C@@H](CCCCN)C(=O)N[C@@H](CCC(N)=O)C(=O)N[C@@H](CCCCN)C(=O)N[C@@H](CCCCN)C(=O)N[C@@H](CCC(N)=O)C(=O)N[C@@H](CCCNC(=N)N)C(=O)N[C@@H](CCC(N)=O)C(=O)N[C@@H](CCCCN)C(=O)N[C@@H](C)C(=O)N[C@@H](CCCCN)C(=O)N[C@H](C(=O)N[C@@H](CC(N)=O)C(=O)N[C@@H](C)C(=O)N[C@@H](CCC(N)=O)C(=O)N[C@H](C(=O)N[C@@H](CC(C)C)C(=O)N[C@@H](C)C(=O)N[C@@H](CCC(N)=O)C(=O)N[C@H](C(N)=O)C(C)C)[C@@H](C)CC)[C@@H](C)O)C(=O)O) [peptide of SEQ ID NO: 11]
4 | 1.38 nM | > 1000 nM | 7.75% | FTLSLDVPTKIK([γGlu-Palmitoyl])QKLFKQAKQKKQRQKAKTNAQILARV-NH2 (N-terminus assumed; SMILES CCCCCCCCCCCCCCCC(=O)N[C@@H](CCC(=O)NCCCC[C@H](NC(=O)[C@@H](NC(=O)[C@H](CCCCN)NC(=O)[C@@H](NC(=O)[C@@H]1CCCN1C(=O)[C@@H](NC(=O)[C@H](CC(=O)O)NC(=O)[C@H](CC(C)C)NC(=O)[C@H](CO)NC(=O)[C@H](CC(C)C)NC(=O)[C@@H](NC(=O)[C@@H](N)Cc1ccccc1)[C@@H](C)O)C(C)C)[C@@H](C)O)[C@@H](C)CC)C(=O)N[C@@H](CCC(N)=O)C(=O)N[C@@H](CCCCN)C(=O)N[C@@H](CC(C)C)C(=O)N[C@@H](Cc1ccccc1)C(=O)N[C@@H](CCCCN)C(=O)N[C@@H](CCC(N)=O)C(=O)N[C@@H](C)C(=O)N[C@@H](CCCCN)C(=O)N[C@@H](CCC(N)=O)C(=O)N[C@@H](CCCCN)C(=O)N[C@@H](CCCCN)C(=O)N[C@@H](CCC(N)=O)C(=O)N[C@@H](CCCNC(=N)N)C(=O)N[C@@H](CCC(N)=O)C(=O)N[C@@H](CCCCN)C(=O)N[C@@H](C)C(=O)N[C@@H](CCCCN)C(=O)N[C@H](C(=O)N[C@@H](CC(N)=O)C(=O)N[C@@H](C)C(=O)N[C@@H](CCC(N)=O)C(=O)N[C@H](C(=O)N[C@@H](CC(C)C)C(=O)N[C@@H](C)C(=O)N[C@@H](CCCNC(=N)N)C(=O)N[C@H](C(N)=O)C(C)C)[C@@H](C)CC)[C@@H](C)O)C(=O)O) [peptide of SEQ ID NO: 15]
